From US20240132578A1

Legend:
Assay in all cases: cell-based or functional assay
[1] = biological target: HIV-1 APV-13 envelope (Env) on pseudovirus (HIV-1)
[2] = biological target: HIV-1 Env of isolate 92UG046 (clade D pseudovirus) (HIV-1)
[3] = biological target: HIV-1 Env of isolate APV_6, clade B (HIV-1)
[4] = biological target: HIV-1 Env of isolate MGRM-A-008 (clade A pseudovirus) (HIV-1)
[5] = biological target: HIV-1 Env of isolate MGRM-D-003 (clade D pseudovirus) (HIV-1)
[6] = biological target: HIV-1 Env of isolate MGRM-D-011 (clade D pseudovirus) (HIV-1)
[7] = biological target: HIV-1 Env of isolate MGRM-D-024 (clade D pseudovirus) (HIV-1)
[8] = biological target: HIV-1 Env of isolate MGRM-D-014 (clade D pseudovirus) (HIV-1)
[9] = biological target: HIV-1 Env of isolate 92RW026 (clade A pseudovirus) (HIV-1)
[10] = biological target: HIV-1 Env of isolate 92UG001 (clade D pseudovirus) (HIV-1)
[11] = biological target: HIV-1 92BR020 envelope (Env) on pseudovirus (HIV-1)
[12] = biological target: HIV-1 envelope glycoprotein (Env) of isolate MGRM-C-005 (HIV-1)
[13] = biological target: HIV-1 envelope glycoprotein (Env) of isolate MGRM-C-012 (HIV-1)
[14] = biological target: HIV-1 Env of isolate MGRM-D-026 (clade D pseudovirus) (HIV-1)
[15] = biological target: HIV-1 Env of pseudovirus MGRM-G-013 (HIV-1)
[16] = biological target: HIV-1 Env of isolate 94UG103 (Clade A) (HIV-1)
[17] = biological target: HIV-1 Env of isolate MGRM-G-017 (subtype G) (HIV-1)
[18] = biological target: HIV-1 envelope glycoprotein (Env) of isolate 93TH305, on pseudovirus (HIV-1)
[19] = biological target: HIV-1 envelope glycoprotein (Env) of isolate MGRM-Chronic-B-004, on pseudovirus (HIV-1)
[20] = biological target: HIV-1 envelope glycoprotein (Env) of isolate CAAN.A2, on pseudovirus (HIV-1)
[21] = biological target: HIV-1 envelope glycoprotein (Env) of isolate MGRM-Chronic-B-001, on pseudovirus (HIV-1)
[22] = biological target: HIV-1 envelope glycoprotein (Env) of isolate MGRM-Chronic-B-011, on pseudovirus (HIV-1)
[23] = biological target: HIV-1 JR-CSF Env D417A (HIV-1 (isolate JR-CSF)) (UniProt P20871)
[24] = biological target: HIV-1 JR-CSF Env L416A (HIV-1 (isolate JR-CSF)) (UniProt P20871)
[25] = biological target: HIV-1 Env of pseudovirus isolate MGRM-C-007 (clade C) (HIV-1)
[26] = biological target: HIV-1 Env of pseudovirus isolate MGRM-C-015 (clade C) (HIV-1)
[27] = biological target: HIV-1 Env of isolate MGRM-D-012 (pseudovirus) (HIV-1)
[28] = biological target: HIV-1 Env of pseudovirus isolate MGRM-C-027 (clade C) (HIV-1)
[29] = biological target: HIV-1 Env of isolate 92UG001 (pseudovirus) (HIV-1)
[30] = biological target: HIV-1 Env of pseudovirus isolate MGRM-C-006 (clade C) (HIV-1)
[31] = biological target: HIV-1 Env of pseudovirus isolate MGRM-C-017 (clade C) (HIV-1)
[32] = biological target: HIV-1 Env of isolate 92WR026 (pseudovirus) (HIV-1)
[33] = biological target: HIV-1 Env of pseudovirus isolate MGRM-C-020 (clade C) (HIV-1)
[34] = biological target: HIV-1 Env of isolate MGRM-AG-006 (subtype AG) (HIV-1)
[35] = biological target: HIV-1 Env of isolate MGRM-D-029 (HIV-1)
[36] = biological target: HIV-1 Env of isolate MGRM-AG-001 (subtype AG) (HIV-1)
[37] = biological target: HIV-1 Env of isolate MGRM-D-014 (pseudovirus) (HIV-1)
[38] = biological target: HIV-1 Env of isolate MGRM-AE-004 (subtype AE) (HIV-1)
[39] = biological target: HIV-1 Env of isolate MGRM-F1-021 (HIV-1)
[40] = biological target: HIV-1 Env of isolate MGRM-AE-003 (subtype AE) (HIV-1)
[41] = biological target: HIV-1 Env of isolate MGRM-G-013 (subtype G) (HIV-1)

Chain of 1443_C16 (PG16) (TCN-116) (antibody) (VH): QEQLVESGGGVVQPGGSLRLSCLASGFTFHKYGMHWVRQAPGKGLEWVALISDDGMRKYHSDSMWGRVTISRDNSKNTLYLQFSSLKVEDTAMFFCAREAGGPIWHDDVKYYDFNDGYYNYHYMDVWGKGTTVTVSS
Chain of 1443_C16 (PG16) (TCN-116) (antibody) (VL): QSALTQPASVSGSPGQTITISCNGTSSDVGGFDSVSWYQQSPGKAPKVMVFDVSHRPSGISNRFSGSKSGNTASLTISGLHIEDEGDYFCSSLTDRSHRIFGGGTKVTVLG

| Substance | neutralization IC50 [1] | IC50, pseudovirus neutralization [2] | IC50 (µg/ml), pseudovirus neutralization [3] | IC50 (µg/ml), pseudovirus neutralization [4] | IC50, pseudovirus neutralization [5] | IC50, pseudovirus neutralization [6] | IC50, pseudovirus neutralization [7] | IC50, pseudovirus neutralization [8] | IC50 (µg/ml), pseudovirus neutralization [9] | IC50, pseudovirus neutralization [10] | neutralization IC50 [11] | IC50 (µg/ml), pseudovirus neutralization [12] | IC50 (µg/ml), pseudovirus neutralization [13] | IC50, pseudovirus neutralization [14] | IC50 (µg/ml), pseudovirus neutralization [15] | IC90 (neutralization of pseudovirus) [16] | IC50, pseudovirus neutralization [18] | IC50, pseudovirus neutralization [19] | IC50, pseudovirus neutralization [20] | IC50, pseudovirus neutralization [21] | further results |
| --- | --- | --- | --- | --- | --- | --- | --- | --- | --- | --- | --- | --- | --- | --- | --- | --- | --- | --- | --- | --- | --- |
| 2F5 (antibody) | 2.8 µg/mL | > 50 µg/mL | 0.25 µg/mL | > 50 µg/mL | > 50 µg/mL | > 50 µg/mL | > 50 µg/mL | 2.22 µg/mL | 8.63 µg/mL | 13 µg/mL | > 50 µg/mL | > 50 µg/mL | > 50 µg/mL | 4.37 µg/mL | 0.59 µg/mL | 46.6 µg/mL | – | – | – | – | – |
| 2G12 (antibody) | 23.9 µg/mL | > 50 µg/mL | 1.9 µg/mL | > 50 µg/mL | > 50 µg/mL | 1.5 µg/mL | > 50 µg/mL | > 50 µg/mL | 17.2 µg/mL | > 50 µg/mL | 2.26 µg/mL | > 50 µg/mL | > 50 µg/mL | > 50 µg/mL | > 50 µg/mL | > 50 µg/mL | – | – | – | – | – |
| 4E10 (antibody) | 3.8 µg/mL | 12.2 µg/mL | 1.1 µg/mL | 7.59 µg/mL | 2.49 µg/mL | 0.91 µg/mL | 3.6 µg/mL | 3.24 µg/mL | 12.9 µg/mL | 13.6 µg/mL | 41.4 µg/mL | 16.4 µg/mL | 0.44 µg/mL | 2.95 µg/mL | 1.15 µg/mL | > 50 µg/mL | – | – | – | – | – |
| 1443_C16 (PG16) (TCN-116) (antibody) | > 50 µg/mL | 1.42 µg/mL | 0.29 µg/mL | > 50 µg/mL | 0.01 µg/mL | 0.01 µg/mL | 0.02 µg/mL | 0.003 µg/mL | 0.03 µg/mL | > 50 µg/mL | > 50 µg/mL | 2.55 µg/mL | 0.48 µg/mL | > 50 µg/mL | > 50 µg/mL | 1.59 µg/mL | – | – | – | – | – |
| 1495_C14 (PGC14) (antibody) | > 50 µg/mL | > 50 µg/mL | 23 µg/mL | > 50 µg/mL | > 50 µg/mL | > 50 µg/mL | > 50 µg/mL | 48 µg/mL | > 50 µg/mL | > 50 µg/mL | 0.637 µg/mL | > 50 µg/mL | > 50 µg/mL | > 50 µg/mL | > 50 µg/mL | – | – | – | – | – | – |
| 1496_C09 (PG9) (TCN-109) (antibody) | – | 0.64 µg/mL | 0.12 µg/mL | – | – | 0.06 µg/mL | 0.03 µg/mL | – | 0.27 µg/mL | 41.8 µg/mL | – | 2.98 µg/mL | 0.24 µg/mL | 17.5 µg/mL | – | 3.37 µg/mL | – | – | – | – | IC50 (µg/mL), pseudovirus neutralization [17]: 0.104 µg/mL |
| 4838_L06 (PGT-121) (antibody) | – | – | – | – | – | – | – | – | – | – | – | – | – | – | – | – | 0.007 µg/mL | 0.009 µg/mL | 0.011 µg/mL | 0.102 µg/mL | IC50, pseudovirus neutralization [22]: > 50 µg/mL |
| 4858_P08 (PGT-123) (antibody) | – | – | – | – | – | – | – | – | – | – | – | – | – | – | – | – | 0.008 µg/mL | 0.008 µg/mL | 0.015 µg/mL | 0.15 µg/mL | Fold IC50 increase relative to wild-type (pseudovirus neutralization) [23]: 0.7 fold; Fold IC50 increase relative to wild-type (pseudovirus neutralization) [24]: 0.9 fold; IC50, pseudovirus neutralization [22]: > 50 µg/mL |
| 4877_D15 (PGT-122) (antibody) | – | – | – | – | – | – | – | – | – | – | – | – | – | – | – | – | 0.013 µg/mL | 0.008 µg/mL | 0.011 µg/mL | 0.138 µg/mL | IC50, pseudovirus neutralization [22]: > 50 µg/mL |
| 5123_A06 (PGT-125) (antibody) | – | – | – | – | – | – | – | – | – | – | – | – | – | – | – | – | 0.008 µg/mL | 0.007 µg/mL | 5.47 µg/mL | > 50 µg/mL | Fold IC50 increase relative to wild-type (pseudovirus neutralization) [23]: 0.5 fold; Fold IC50 increase relative to wild-type (pseudovirus neutralization) [24]: 0.8 fold; IC50, pseudovirus neutralization [22]: 3.23 µg/mL |
| 5141_B17 (PGT-126) (antibody) | – | – | – | – | – | – | – | – | – | – | – | – | – | – | – | – | 0.013 µg/mL | 0.01 µg/mL | 0.273 µg/mL | > 50 µg/mL | Fold IC50 increase relative to wild-type (pseudovirus neutralization) [23]: 1 fold; Fold IC50 increase relative to wild-type (pseudovirus neutralization) [24]: 0.8 fold; IC50, pseudovirus neutralization [22]: 0.108 µg/mL |
| 5145_B14 (PGT-127) (antibody) | – | – | – | – | – | – | – | – | – | – | – | – | – | – | – | – | 0.017 µg/mL | 0.018 µg/mL | 0.371 µg/mL | > 50 µg/mL | Fold IC50 increase relative to wild-type (pseudovirus neutralization) [23]: 0.4 fold; Fold IC50 increase relative to wild-type (pseudovirus neutralization) [24]: 1 fold; IC50, pseudovirus neutralization [22]: 0.297 µg/mL |
| 5329_C19 (PGT-136) (antibody) | – | – | – | – | – | – | – | – | – | – | – | – | – | – | – | – | – | – | – | – | IC50, pseudovirus neutralization [25]: > 50 µg/mL; IC50, pseudovirus neutralization [26]: 11.1 µg/mL; IC50 (µg/mL), pseudovirus neutralization [27]: > 50 µg/mL; IC50, pseudovirus neutralization [28]: > 50 µg/mL; IC50 (µg/mL), pseudovirus neutralization [29]: > 50 µg/mL; IC50, pseudovirus neutralization [30]: > 50 µg/mL; IC50, pseudovirus neutralization [31]: > 50 µg/mL; IC50 (µg/mL), pseudovirus neutralization [32]: > 50 µg/mL; IC50, pseudovirus neutralization [33]: > 50 µg/mL; IC50, pseudovirus neutralization [34]: 29.1 µg/mL; IC50 (µg/mL), pseudovirus neutralization [35]: > 50 µg/mL; IC50, pseudovirus neutralization [36]: > 50 µg/mL; IC50 (µg/mL), pseudovirus neutralization [37]: > 50 µg/mL; IC50, pseudovirus neutralization [38]: > 50 µg/mL; IC50 (µg/mL), pseudovirus neutralization [39]: > 50 µg/mL; IC50, pseudovirus neutralization [40]: > 50 µg/mL |
| PGV04 (antibody) | – | – | – | – | – | – | – | – | – | – | – | – | – | – | – | – | – | – | – | – | IC50 (µg/mL), pseudovirus neutralization [41]: 0.168 µg/mL; IC50 (µg/mL), pseudovirus neutralization [17]: 0.065 µg/mL; IC50 (µg/mL), pseudovirus neutralization [39]: 0.031 µg/mL |
| b12 (antibody) | > 25 µg/mL | 0.07 µg/mL | > 50 µg/mL | > 50 µg/mL | > 50 µg/mL | 7.75 µg/mL | 5.92 µg/mL | > 50 µg/mL | > 50 µg/mL | 1.01 µg/mL | 27.5 µg/mL | 2.66 µg/mL | > 50 µg/mL | 1.55 µg/mL | > 50 µg/mL | 47.3 µg/mL | – | – | – | – | – |
